According to US20050222029A1 (MYRIAD GENETICS, published 2005):

Tests used:
Assay in all cases: yeast two-hybrid
[1] = molecular target: T1, golgi autoantigen, golgin subfamily a, 5 (Golgin-84) 609-731 (human, UniProt Q8TBA6 609-731)
T1 construct: prey (Gal4 AD-HA fusion)
T1 sequence (looked up): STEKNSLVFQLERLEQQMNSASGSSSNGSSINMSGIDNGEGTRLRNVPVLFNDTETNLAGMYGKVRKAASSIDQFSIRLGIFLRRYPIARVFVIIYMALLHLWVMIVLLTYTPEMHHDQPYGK

[2] = molecular target: T2, upstream of N-ras, alt. transcript (798) (UNR) 110-528 (human, UniProt O75534 110-528)
T2 construct: prey (Gal4 AD-HA fusion)
T2 sequence (looked up): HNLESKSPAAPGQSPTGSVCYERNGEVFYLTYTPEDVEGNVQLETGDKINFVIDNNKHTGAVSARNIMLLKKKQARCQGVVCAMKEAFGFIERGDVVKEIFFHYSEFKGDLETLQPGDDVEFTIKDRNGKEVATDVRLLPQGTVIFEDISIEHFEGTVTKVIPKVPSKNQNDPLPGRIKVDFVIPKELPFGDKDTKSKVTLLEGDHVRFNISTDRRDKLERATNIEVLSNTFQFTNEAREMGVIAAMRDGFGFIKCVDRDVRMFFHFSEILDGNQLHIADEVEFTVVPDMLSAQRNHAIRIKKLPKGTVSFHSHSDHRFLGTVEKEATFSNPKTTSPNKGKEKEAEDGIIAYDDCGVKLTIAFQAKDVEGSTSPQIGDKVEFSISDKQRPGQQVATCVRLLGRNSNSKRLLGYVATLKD

[3] = molecular target: T3, Charcot-Leyden crystal protein; periplakin (PPL) 1548-1756 (human, UniProt O60437 1548-1756)
T3 construct: prey (Gal4 AD-HA fusion)
T3 sequence (looked up): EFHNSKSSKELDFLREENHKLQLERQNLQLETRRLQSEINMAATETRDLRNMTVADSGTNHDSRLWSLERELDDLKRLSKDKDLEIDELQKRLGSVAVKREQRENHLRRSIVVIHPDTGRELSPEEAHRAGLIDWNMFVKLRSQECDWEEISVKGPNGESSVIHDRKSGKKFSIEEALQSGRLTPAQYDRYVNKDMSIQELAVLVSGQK

[4] = molecular target: T4, Apolipoprotein A-I (APOA1) 106-267 (human, UniProt P02647 106-267)
T4 construct: bait (Gal4 DBD fusion)

[5] = molecular target: T5, Catenin, alpha 2 (A2-CAT) 55-487 (human, UniProt P26232 55-487)
T5 construct: prey (Gal4 AD-HA fusion)
T5 sequence (looked up): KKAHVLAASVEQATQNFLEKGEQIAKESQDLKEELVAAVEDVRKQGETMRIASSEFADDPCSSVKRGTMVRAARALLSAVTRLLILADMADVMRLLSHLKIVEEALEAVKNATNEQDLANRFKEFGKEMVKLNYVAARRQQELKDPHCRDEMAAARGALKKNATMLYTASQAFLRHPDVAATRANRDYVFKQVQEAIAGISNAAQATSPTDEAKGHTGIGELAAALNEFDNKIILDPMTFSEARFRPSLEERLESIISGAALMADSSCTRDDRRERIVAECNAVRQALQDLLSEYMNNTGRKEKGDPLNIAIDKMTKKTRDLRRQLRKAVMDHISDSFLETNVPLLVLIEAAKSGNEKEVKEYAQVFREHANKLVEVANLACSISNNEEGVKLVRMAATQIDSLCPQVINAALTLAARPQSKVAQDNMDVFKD

[6] = molecular target: T6, Catenin, alpha 2 (A2-CAT) 1-166 (human, UniProt P26232 1-166)
T6 construct: prey (Gal4 AD-HA fusion)
T6 sequence (looked up): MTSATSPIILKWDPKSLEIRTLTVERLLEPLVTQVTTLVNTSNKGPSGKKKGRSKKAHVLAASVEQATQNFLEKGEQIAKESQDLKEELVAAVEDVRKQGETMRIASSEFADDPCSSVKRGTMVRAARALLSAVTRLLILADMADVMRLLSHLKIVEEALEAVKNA

[7] = molecular target: T7, Chromosome-associated polypeptide HCAP (HCAP) 119-353 (human, UniProt Q9UQE7 119-353)
T7 construct: prey (Gal4 AD-HA fusion)

[8] = molecular target: T8, Golgi autoantigen (Golgin-84) 198-501 (human, UniProt Q8TBA6 198-501)
T8 construct: prey (Gal4 AD-HA fusion)
T8 sequence (looked up): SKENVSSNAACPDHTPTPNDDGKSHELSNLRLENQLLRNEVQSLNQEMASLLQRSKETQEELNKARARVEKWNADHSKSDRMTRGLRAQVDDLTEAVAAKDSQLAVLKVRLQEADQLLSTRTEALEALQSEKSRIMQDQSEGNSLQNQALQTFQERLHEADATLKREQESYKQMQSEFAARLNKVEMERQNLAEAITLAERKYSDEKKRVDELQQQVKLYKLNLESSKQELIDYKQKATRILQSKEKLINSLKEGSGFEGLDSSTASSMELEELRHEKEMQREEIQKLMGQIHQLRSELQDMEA

VPS28 protein 9-211 = molecular target: T9, VPS28 protein 9-211 (human, UniProt Q9UK41 9-211)
T9 construct: prey (Gal4 AD-HA fusion); also called vacuolar protein sorting 28
T9 sequence (looked up): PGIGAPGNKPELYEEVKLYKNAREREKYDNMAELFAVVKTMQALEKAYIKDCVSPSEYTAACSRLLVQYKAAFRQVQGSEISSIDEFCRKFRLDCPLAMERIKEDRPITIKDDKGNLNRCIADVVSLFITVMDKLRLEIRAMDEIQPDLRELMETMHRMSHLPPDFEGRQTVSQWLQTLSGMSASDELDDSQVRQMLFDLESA

[9] = molecular target: T10, Cytoplasmic linker 2 (CYLN2) 607-947 (human, UniProt Q9UDT6 607-947)
T10 construct: prey (Gal4 AD-HA fusion)
T10 sequence (looked up): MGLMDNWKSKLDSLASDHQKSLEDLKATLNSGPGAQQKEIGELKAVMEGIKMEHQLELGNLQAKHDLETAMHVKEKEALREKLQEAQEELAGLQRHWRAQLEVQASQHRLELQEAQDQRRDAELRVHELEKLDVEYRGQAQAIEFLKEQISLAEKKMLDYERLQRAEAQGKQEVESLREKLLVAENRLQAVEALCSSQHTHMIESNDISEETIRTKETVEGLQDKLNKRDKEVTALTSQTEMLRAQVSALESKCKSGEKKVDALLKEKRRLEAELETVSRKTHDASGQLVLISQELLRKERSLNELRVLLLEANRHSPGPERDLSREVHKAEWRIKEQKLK

[10] = molecular target: T11, intracellular chloride channel protein (CLIC1) 98-210 (human, UniProt O00299 98-210)
T11 construct: range 98-210; prey (Gal4 AD-HA fusion); also called NCC27

[11] = molecular target: T12, tetratricopeptide repeat domain 3 (TPRD) 1058-1189 (human, UniProt P53804 1058-1189)
T12 construct: prey (Gal4 AD-HA fusion)
T12 sequence (looked up): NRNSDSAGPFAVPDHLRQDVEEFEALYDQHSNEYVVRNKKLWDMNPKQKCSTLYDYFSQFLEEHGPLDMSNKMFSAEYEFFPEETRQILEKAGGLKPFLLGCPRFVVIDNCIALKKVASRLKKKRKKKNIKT

[12] = molecular target: T13, intracellular chloride channel protein (CLIC1) 51-210 (human, UniProt O00299 51-210)
T13 construct: range 51-210; prey (Gal4 AD-HA fusion); also called NCC27

[13] = molecular target: T14, Protein kinase C and casein kinase substrate (PACSIN2) 174-367 (human, UniProt Q9UNF0 174-367)
T14 construct: prey (Gal4 AD-HA fusion)
T14 sequence (looked up): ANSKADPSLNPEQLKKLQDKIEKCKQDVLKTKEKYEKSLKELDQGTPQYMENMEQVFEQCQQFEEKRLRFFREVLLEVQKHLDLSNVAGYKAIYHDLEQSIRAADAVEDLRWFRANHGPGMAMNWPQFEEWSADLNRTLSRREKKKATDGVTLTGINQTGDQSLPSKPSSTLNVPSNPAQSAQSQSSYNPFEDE

VPS28 protein 10-221 = molecular target: T15, VPS28 protein 10-221 (human, UniProt Q9UK41 10-221)
T15 construct: prey (Gal4 AD-HA fusion); also called vacuolar protein sorting 28
T15 sequence (looked up): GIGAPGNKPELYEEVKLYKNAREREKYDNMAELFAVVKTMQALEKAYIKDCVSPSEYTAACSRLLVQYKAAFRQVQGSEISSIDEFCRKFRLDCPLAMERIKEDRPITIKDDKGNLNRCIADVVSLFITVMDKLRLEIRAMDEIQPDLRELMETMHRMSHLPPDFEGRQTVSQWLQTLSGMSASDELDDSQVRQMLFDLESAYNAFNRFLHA

PIBF1 392-758 = molecular target: T16, PIBF1 392-758 (human, UniProt Q8WXW3 392-757)
T16 construct: prey (Gal4 AD-HA fusion)
T16 sequence (looked up): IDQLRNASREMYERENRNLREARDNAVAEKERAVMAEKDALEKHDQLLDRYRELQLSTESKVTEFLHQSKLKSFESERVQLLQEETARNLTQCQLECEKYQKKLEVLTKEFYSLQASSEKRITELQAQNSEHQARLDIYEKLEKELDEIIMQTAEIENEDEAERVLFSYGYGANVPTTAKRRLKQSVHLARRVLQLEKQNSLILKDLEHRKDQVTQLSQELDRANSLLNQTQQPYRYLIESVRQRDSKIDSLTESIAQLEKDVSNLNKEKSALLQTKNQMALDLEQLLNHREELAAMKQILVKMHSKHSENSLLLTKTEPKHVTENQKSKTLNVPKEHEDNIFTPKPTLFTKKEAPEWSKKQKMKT

T7 sequence (Q9UQE7 119-353 limits assumed): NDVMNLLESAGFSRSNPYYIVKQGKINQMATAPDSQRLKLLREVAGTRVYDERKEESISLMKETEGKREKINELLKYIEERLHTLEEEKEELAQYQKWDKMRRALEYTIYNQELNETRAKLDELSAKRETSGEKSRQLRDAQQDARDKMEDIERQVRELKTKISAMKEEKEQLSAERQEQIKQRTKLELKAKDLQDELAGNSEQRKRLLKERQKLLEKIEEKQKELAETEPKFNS
T4 sequence (P02647 106-267 limits assumed, form in doubt): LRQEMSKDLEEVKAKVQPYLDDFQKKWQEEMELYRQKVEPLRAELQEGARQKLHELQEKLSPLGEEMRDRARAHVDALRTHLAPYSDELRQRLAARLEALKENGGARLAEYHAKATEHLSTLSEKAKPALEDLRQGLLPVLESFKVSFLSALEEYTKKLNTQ

B1: v-akt murine thymoma viral oncogene homolog 1 (AKT1) 1-118 (enzyme, human, UniProt P31749 1-118, looked up)
chain: MSDVAIVKEGWLHKRGEYIKTWRPRYFLLKNDGTFIGYKERPQDVDQREAPLNNFSVAQCQLMKTERPRPNTFIIRCLQWTTVIERTFHVETPEEREEWTTAIQTVADGLKKQEEEEM
notes: bait (Gal4 DBD fusion)
B1: binds [1].

B2: ribosomal protein S6 kinase, 90 kDa, polypeptide 1 (p90RSK) 418-467 (enzyme, human, UniProt Q15418 418-467, looked up)
chain: YVVKETIGVGSYSECKRCVHKATNMEYAVKVIDKSKRDPSEEIEILLRYG
notes: range 418-467; bait (Gal4 DBD fusion); also called HU1
B2: binds [2].

B3: v-akt murine thymoma viral oncogene homolog 1 (AKT1) 1-109 (enzyme, human, UniProt P31749 1-109, looked up)
chain: MSDVAIVKEGWLHKRGEYIKTWRPRYFLLKNDGTFIGYKERPQDVDQREAPLNNFSVAQCQLMKTERPRPNTFIIRCLQWTTVIERTFHVETPEEREEWTTAIQTVADG
notes: bait (Gal4 DBD fusion)
B3: binds [3].

B4: syntaxin 2 (STX2) 156-261 (other, human, UniProt P32856 156-261, looked up)
chain: GRTTTDDELEEMLESGKPSIFTSDIISDSQITRQALNEIESRHKDIMKLETSIRELHEMFMDMAMFVETQGEMINNIERNVMNATDYVEHAKEETKKAIKYQSKAR
B4: binds [4].

B5: Survivin (BIRC5) 52-143 (other, human, UniProt O15392 52-142, looked up)
chain: PDLAQCFFCFKELEGWEPDDDPIEEHKKHSSGCAFLSVKKQFEELTLGEFLKLDRERAKNKIAKETNNKKKEFEETAKKVRRAIEQLAAMD
notes: range 52-143; bait (Gal4 DBD fusion); also called API4
B5: binds [5]; binds [6].

B6: Tumor Suppressor (TSG101) 264-391 (other, human, UniProt Q99816 264-390, looked up)
chain: KKGHQKLEEMVTRLDQEVAEVDKNIELLKKKDEELSSALEKMENQSENNDIDEVIIPTAPLYKQILNLYAEENAIEDTIFYLGEALRRGVIDLDVFLKHVRLLSRKQFQLRALMQKARKTAGLSDLY
notes: range 264-391; bait (Gal4 DBD fusion)
B6: binds [7].

B7: Tumor Suppressor (TSG101) 231-391 (other, human, UniProt Q99816 231-390, looked up)
chain: ISAVSDKLRWRMKEEMDRAQAELNALKRTEEDLKKGHQKLEEMVTRLDQEVAEVDKNIELLKKKDEELSSALEKMENQSENNDIDEVIIPTAPLYKQILNLYAEENAIEDTIFYLGEALRRGVIDLDVFLKHVRLLSRKQFQLRALMQKARKTAGLSDLY
notes: bait (Gal4 DBD fusion)
B7: binds [8]; binds (VPS28 protein 9-211); binds [9].

B8: v-akt murine thymoma viral oncogene homolog 2 (AKT2) 1-108 (enzyme, human, UniProt P31751 1-108, looked up)
chain: MNEVSVIKEGWLHKRGEYIKTWRPRYFLLKSDGSFIGYKERPEAPDQTLPPLNNFSVAECQLMKTERPRPNTFVIRCLQWTTVIERTFHVDSPDEREEWMRAIQMVAN
notes: bait (Gal4 DBD fusion)
B8: binds [10]; binds [11]; binds [12].

B9: Tumor Suppressor (TSG101) 265-391 (other, human, UniProt Q99816 265-390, looked up)
chain: KGHQKLEEMVTRLDQEVAEVDKNIELLKKKDEELSSALEKMENQSENNDIDEVIIPTAPLYKQILNLYAEENAIEDTIFYLGEALRRGVIDLDVFLKHVRLLSRKQFQLRALMQKARKTAGLSDLY
notes: range 265-391; bait (Gal4 DBD fusion); also called TSG101 265-390
B9: binds [13]; binds (VPS28 protein 10-221).

B10: Tumor Suppressor (TSG101) 12-326 (other, human, UniProt Q99816 12-326, looked up)
chain: VSKYKYRDLTVRETVNVITLYKDLKPVLDSYVFNDGSSRELMNLTGTIPVPYRGNTYNIPICLWLLDTYPYNPPICFVKPTSSMTIKTGKHVDANGKIYLPYLHEWKHPQSDLLGLIQVMIVVFGDEPPVFSRPISASYPPYQATGPPNTSYMPGMPGGISPYPSGYPPNPSGYPGCPYPPGGPYPATTSSQYPSQPPVTTVGPSRDGTISEDTIRASLISAVSDKLRWRMKEEMDRAQAELNALKRTEEDLKKGHQKLEEMVTRLDQEVAEVDKNIELLKKKDEELSSALEKMENQSENNDIDEVIIPTAPLYK
notes: bait (Gal4 DBD fusion)
B10: binds (PIBF1 392-758).
